Measurements reported in patent publication US20040076995A1, “Nurr1 transcription factor 1-box mutants having monomeric transcriptional activation activity” (priority 2001, published 2004).
Numbering of substitutions follows the chain as printed. Names may count otherwise.

Columns and labels:
[1] = target: T1, VP16-RXR (herpes simplex VP16 trans-activation domain followed by the complete coding sequence of human RXRα) (herpes simplex; human, UniProt P19793 1-462); test: mammalian two-hybrid assay, JEG3 cells
T1 construct: Two-hybrid prey, expressed in JEG3 cells; also called pCMX-VP16-RXR
T1 sequence: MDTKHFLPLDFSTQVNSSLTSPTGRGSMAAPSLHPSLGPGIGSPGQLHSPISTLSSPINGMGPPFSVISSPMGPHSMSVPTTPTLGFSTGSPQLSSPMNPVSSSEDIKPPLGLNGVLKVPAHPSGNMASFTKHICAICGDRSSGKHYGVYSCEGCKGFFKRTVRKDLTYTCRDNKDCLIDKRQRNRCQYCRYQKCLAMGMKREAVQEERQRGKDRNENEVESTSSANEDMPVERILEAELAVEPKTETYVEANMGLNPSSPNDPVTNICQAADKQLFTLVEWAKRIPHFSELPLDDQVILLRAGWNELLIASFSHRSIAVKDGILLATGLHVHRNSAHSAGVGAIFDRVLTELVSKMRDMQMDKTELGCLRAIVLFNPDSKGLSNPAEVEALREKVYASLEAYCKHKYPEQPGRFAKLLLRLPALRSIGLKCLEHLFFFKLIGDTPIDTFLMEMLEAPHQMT

[2] = target: Nurr1 wild type/RXR heterodimer (Mus musculus / Homo sapiens?, UniProt Q06219;P19793 Q06219:1-598,P19793:1-462); test: EMSA; heterodimer; 10 mM Tris pH 8.0, 40 mM KCl, poly(dI-dC), on ice; details: label: 32P (Klenow fill-in)
Experimental: (§1) The DNA-binding experiments were carried out as described by Castro et al. 1999. Briefly, Nurr1 and RXR proteins for gel mobility shift assays were produced by coupled in vitro transcription and translation in reticulocyte lysates according to the manufacturer's instructions (TNT Quick Coupled Trans cription/Translation System™; Promega). The proteins were incubated in a binding buffer containing 10 mM Tris (pH 8.0), 40 mM KCI, 0.05% NP-40, 6% glycerol, 1 mM DTT, 0.2mg poly(dI-dC) and protease inhibitors. βRE-probe (agcttaagg[…]ctcgcat; SEQ ID NO:9) was labelled with ³²P by fill-in reaction using Klenow fragment. After addition of the probe, the reactions were incubated on ice for 20 min. Protein-DNA complexes were resolved by electrophoresis on 4% non-denaturating polyacrylamide gel in 0.5×TBE. After electrophoresis, the gels were dried for autoradiography.

[3] = target: Nurr1 P560A (Mus musculus, UniProt Q06219 Q06219:1-598, P560A); test: EMSA; monomeric DNA binding not influenced; betaRE is the only probe described; details: label: 32P (Klenow fill-in)
Experimental: as §1

[4] = target: Nurr1 GKL(557-559)AAA (Mus musculus, UniProt Q06219 Q06219:1-598, G557A,K558A,L559A); test: as above; details: label: 32P (Klenow fill-in)
Experimental: as §1

[5] = target: Nurr1 PEL(560-562)AAA (Mus musculus, UniProt Q06219 Q06219:1-598, P560A,E561A,L562A); test: as above; details: label: 32P (Klenow fill-in)
Experimental: as §1

[6] = target: Nurr1 KLL(554-556)AAA (Mus musculus, UniProt Q06219 Q06219:1-598, K554A,L555A,L556A); test: as above; details: label: 32P (Klenow fill-in)
Experimental: as §1

[7] = target: Nurr1 P560A + RXR (Mus musculus / Homo sapiens?, UniProt Q06219;P19793 Q06219:1-598,P19793:1-462, Nurr1 P560A); test: EMSA; no heterodimer on DNA; monomeric binding retained; details: label: 32P (Klenow fill-in)
Experimental: as §1

[8] = target: Nurr1 PEL(560-562)AAA + RXR (Mus musculus / Homo sapiens?, UniProt Q06219;P19793 Q06219:1-598,P19793:1-462, Nurr1 P560A,E561A,L562A); test: as above; details: label: 32P (Klenow fill-in)
Experimental: as §1

[9] = system: Nurr1-RXR heterodimer; test: Nurr1-RXR heterodimer-mediated transactivation, βRE luciferase reporter in JEG3 cells; format: cell-based, human; details: βRE-tk luciferase reporter, RXR ligand SR11237 1 μM, effect of the mutation vs wild-type Nurr1
Experimental: The wild-type and mutated Nurr1 derivatives were transfected in JEG3 cells. The ability to transactivate was assessed using a luciferase reporter gene driven by three copies of the hRARβ2 promoter RARE (βRE) upstream of a thymidine kinase promoter.
The influence of the I-box mutations on Nurr1 transcriptional activity and on the ability to interact with RXR was examined as described by Perlmann and Jansson 1995, Zetterström et al. 1996, and Castro et al. 1999. Nurr1-RXR heterodimer-mediated transactivation was studied in human chorion carcinoma JEG3 cells. The cells were maintained in minimum essential medium supplemented with 10% fetal calf serum. Transfections were performed in quadruplicates in 24-well plates using the calcium phosphate precipitation method. The cells were plated 24 h prior to the transfection. Each well was transfected with 100 ng of the expression vector for the Nurr1 variants, 100 ng of a reporter plasmid, and 200 ng of βgalactoside plasmid that was used as an internal control for transfection efficiency. The luciferase reporter used was driven by three copies of the retinoid acid response element (RARE) of the human retinoid acid receptorβ2 (hRARβ2) gene promoter (βRE) upstream of the thymidine kinase promoter. 6-8 hours after transfection, the cells received fresh medium supplemented with 10% charcoal-stripped fetal calf,serum and RXR ligand (SR11237;1 μM). The cells were harvested 24 hours late and lysed. The cells extracts were assayed for luciferase and βgalactosidase activity. The ability of the Nurr1 mutants to interact with RXR was examined using the mammalian two-hybrid assay. The ligand-binding domains (amino acids 353-598; LBD) of both wild-type and mutated Nurr1 variants were cloned in frame with the yeast Gal4 DNA-binding domain (amino acids 1-147) in the pCMX-Gal4 expression vector (Perlmann and Jansson 1995). JEG3 cells were cotransfected with pCMX-Gal4-Nurr1-LBD derivatives and pCMX-VP16-RXR containing the herpes simplex VP16 trans-activation domain followed by the complete coding sequence of human RXRα. A reporter gene with four copies of the Gal4-binding sites was used.

[10] = system: NGFI-B response element (NBRE) reporter; test: Monomeric reporter gene activation, NBRE reporter in 293 cells (full-length receptor); format: cell-based, human; details: three copies of NBRE reporter, effect of the mutation vs wild-type Nurr1
Experimental: The monomeric activity was examined in 293 cells. The full-length receptor derivatives were studied using a reporter gene regulated by three copies of the NGFI-B binding site (NBRE; FIG. A).
The ability of the mutants to activate reporter gene expression as monomers were studied in human embryonic kidney 293 cells. The cells were maintained in Dulbecco's modified Eagles medium with 10% fetal calf serum. Transfections were carried out as with JEG3 cells except that a reporter regulated by three copies of the NGFI-B (nerve growth factor inducible-B)response element (Wilson et al., 1991) (NBREs) was used. The transcriptional activities of the mutated ligand-binding domains were assessed as fusions to the Gal4 DNA-binding domain and a reporter gene with four copies of the Gal4-binding sites was used. All the transfection experiments were performed in quadruplicate dishes and each experiment has been repeated at least twice with essentially identical results. The results of a representative experiment are shown.

B1: Gal4 DNA-binding domain fused to Nurr1 ligand-binding domain (amino acids 353-598) KLL(554-556)AAA (other, yeast;mouse, UniProt P04386 1-147, looked up)
chain: MKLLSSIEQACDICRLKKLKCSKEKPKCAKCLKNNWECRYSPKTKRSPLTRAHLTEVESRLERLEQLFLLIFPREDLDMILKMDSLQDIKALLTGLFVQDNVNKDAVTDRLASVETDMPLTLRQHRISATSSSEESSNKGQRQLTVSQDPSPPSPPVSLISALVRAHVDSNPAMTSLDYSRFQANPDYQMSGDDTQHIQQFYDLLTGSMEIIRGWAEKIPGFADLPKADQDLLFESAFLELFVLRLAYRSNPVEGKLIFCNGVVLHRLQCVRGFGEWIDSIVEFSSNLQNMNIDISAFSCIAALAMVTERHGLKEPKRVEELQNKIVNCLKDHVTFNNGGLNRPNYLSAAAGKLPELRTLCTQGLQRIFYLKLEDLVPPPAIIDKLFLDTLPF
notes: range 1-147;range 353-598; Two-hybrid bait, expressed in JEG3 cells; also called pCMX-Gal4-Nurr1-LBD derivative KLL(554-556)AAA
B1: no binding [1].

B2: Gal4 DNA-binding domain fused to Nurr1 ligand-binding domain (amino acids 353-598) GKL(557-559)AAA (other, yeast;mouse, UniProt P04386 1-147, looked up)
chain: B1 chain with A349K, A350L, A351L, G352A, K353A, L354A
notes: range 1-147;range 353-598; Two-hybrid bait, expressed in JEG3 cells; also called pCMX-Gal4-Nurr1-LBD derivative GKL(557-559)AAA
B2: no binding [1].

B3: Gal4 DNA-binding domain fused to Nurr1 ligand-binding domain (amino acids 353-598) PEL(560-562)AAA (other, yeast;mouse, UniProt P04386 1-147, looked up)
chain: B1 chain with A349K, A350L, A351L, P355A, E356A, L357A
notes: range 1-147;range 353-598; Two-hybrid bait, expressed in JEG3 cells
B3: no binding [1].

B4: betaRE probe (hRARbeta2 promoter RARE) (dsDNA)
DNA 1: AGCTTAAGGGGTTCACCGAAAGTTCACTCGCAT
DNA 2: ATGCGAGTGAACTTTCGGTGAACCCCTTAAGCT
B4: binds [2]; binds [3]; binds [4]. B4: binds [5]; binds [6]; no binding [7]. B4: no binding [8].

B5: P560A: mouse Nurr1 I-box mutant, Pro560 substituted by alanine (protein)
chain: MPCVQAQYGSSPQGASPASQSYSYHSSGEYSSDFLTPEFVKFSMDLTNTEITATTSLPSFSTFMDNYSTGYDVKPPCLYQMPLSGQQSSIKVEDIQMHNYQQHSHLPPQSEEMMPHSGSVYYKPSSPPTPSTPSFQVQHSPMWDDPGSLHNFHQNYVATTHMIEQRKTPVSRLSLFSFKQSPPGTPVSSCQMRFDGPLHVPMNPEPAGSHHVVDGQTFAVPNPIRKPASMGFPGLQIGHASQLLDTQVPSPPSRGSPSNEGLCAVCGDNAACQHYGVRTCEGCKGFFKRTVQKNAKYVCLANKNCPVDKRRRNRCQYCRFQKCLAVGMVKEVVRTDSLKGRRGRLPSKPKSPQDPSPPSPPVSLISALVRAHVDSNPAMTSLDYSRFQANPDYQMSGDDTQHIQQFYDLLTGSMEIIRGWAEKIPGFADLPKADQDLLFESAFLELFVLRLAYRSNPVEGKLIFCNGVVLHRLQCVRGFGEWIDSIVEFSSNLQNMNIDISAFSCIAALAMVTERHGLKEPKRVEELQNKIVNCLKDHVTFNNGGLNRPNYLSKLLGKLAELRTLCTQGLQRIFYLKLEDLVPPPAIIDKLFLDTLPF
B5 was tested, and the “ability of Nurr1 to promote RXR-mediated transactivation” value [9] was “abolished” and the “ability to activate reporter gene expression as monomers (monomeric activity)” value [10] was “no effect”.
